T1: purified recombinant C35 protein generated in E. coli (human, UniProt Q9BRT3 1-115, limits assumed)
T1 construct: Generated and purified from E. coli with cleavage of selection tags; also called hC35 protein; soluble C35 protein
T1 sequence: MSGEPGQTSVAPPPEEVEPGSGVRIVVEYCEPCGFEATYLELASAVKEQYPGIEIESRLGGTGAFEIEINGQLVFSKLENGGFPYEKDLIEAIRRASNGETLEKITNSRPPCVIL

T2: C35 protein, recombinant, bacterially synthesized (human, UniProt Q9BRT3 1-115, limits assumed)
T2 construct: also called hC35 protein; bacterially-synthesized C35
T2 sequence: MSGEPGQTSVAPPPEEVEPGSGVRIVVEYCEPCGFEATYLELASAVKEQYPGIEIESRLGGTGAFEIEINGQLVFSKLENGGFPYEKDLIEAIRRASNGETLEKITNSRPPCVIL


Target: T1, purified recombinant C35 protein …
Assay: ELISA, hybridoma supernatant on coated C35 protein

| Binder | binding result |
| --- | --- |
| hybridoma clone 1B3 antibody (antibody, mouse IgG1, V domains shown, Murine IgG1 from BCA34.hC35 immunization) VH: EVQLQESGPSLVKPSQTLSLTCSVTGDSITSGYWNWIRKFPGNKLEYVGYISYSGGTYYNPSLKSRISITRDTSKNHYYLQLNSVTTEDTATYYCARGAYYGGAFFPYFDVWGAGTTVTVSS VL: DVQITQSPSFLAASPGETITINCRASKYISKHLVWYQEKPGETKKLLIYSGSTLQSGLPSRFSGSGSGTDFTLTISSLEPEDFAMYYCQQHNEYPLTFGAGTKLELK | binds |
| hybridoma clone 3E10 antibody (antibody, mouse IgG1, V domains shown, Murine IgG1 kappa from BCA34.hC35 immunization) VH: EVQLQESGPSLVKPSQTLSLTCSVTGDSITSGYWNWIRKFPGNKLEYVGYISYSGGTYYNPSLKSRISITRDTSKNHYYLQLNSVTTEDTATYYCARGAYYGGAFFPYFDVWGAGTTVTVSS VL: DVQITQSPSFLAASPGETITINCRASKYISKHLVWYQEKPGETKKLLIYSGSTLQSGLPSRFSGSGSGTDFTLTISSLEPEDFAMYYCQQHNEYPLTFGAGTKLELK | binds |

Target: T2, C35 protein, recombinant, bacterially …
Assay: ELISA screen of hybridoma supernatants on plates coated with C35 protein

| Binder | binding result |
| --- | --- |
| 1B3 monoclonal antibody (antibody, V domains shown, Mouse IgG1 kappa, tested as hybridoma supernatant) VH: EVQLQESGPSLVKPSQTLSLTCSVTGDSITSGYWNWIRKFPGNKLEYVGYISYSGGTYYNPSLKSRISITRDTSKNHYYLQLNSVTTEDTATYYCARGAYYGGAFFPYFDVWGAGTTVTVSS VL: DVQITQSPSFLAASPGETITINCRASKYISKHLVWYQEKPGETKKLLIYSGSTLQSGLPSRFSGSGSGTDFTLTISSLEPEDFAMYYCQQHNEYPLTFGAGTKLELK | binds |
| 3E10 monoclonal antibody (antibody, V domains shown, Mouse IgG1 kappa, tested as hybridoma supernatant) VH: EVQLQESGPSLVKPSQTLSLTCSVTGDSITSGYWNWIRKFPGNKLEYVGYISYSGGTYYNPSLKSRISITRDTSKNHYYLQLNSVTTEDTATYYCARGAYYGGAFFPYFDVWGAGTTVTVSS VL: DVQITQSPSFLAASPGETITINCRASKYISKHLVWYQEKPGETKKLLIYSGSTLQSGLPSRFSGSGSGTDFTLTISSLEPEDFAMYYCQQHNEYPLTFGAGTKLELK | binds |

Target: HLA-A*0201 (human, UniProt A*02:01)
Assay: fluorescence polarization competition, test peptide at 100 uM against fluorescent-labeled peptide on HLA-A*0201; from Ymax, calibrated with irrelevant (0%) and relevant (100%) competitor

| Binder | % inhibition |
| --- | --- |
| FEIEINGQL [C35 peptide F65 to L73] | 74.8% |
| TYLELASAV [C35 peptide T38 to V46] | 47.3% |
| SVAPPPEEV [C35 peptide S9 to V17] | 96.9% |
| GTGAFEIEI [C35 peptide G61 to I69] | 46.5% |
| ITNSRPPCV [C35 peptide I105 to V113] | 86.4% |
| SGVRIVVEY [C35 peptide S21 to Y29] | 90.8% |

Source: patent US20090297440A1 (published 2009)
